Experimental data published in the supplement of paper PMC12636428.

Tested on: Saccharomyces cerevisiae
Assay: transcriptional activation domain activity (GFP:mCherry ratio, weighted mean of sorted bins, harmonized to initial dataset scale) (arbitrary fluorescence ratio units); higher = stronger transcriptional activation
Conditions: beta-estradiol 1 µM; induction time 4 h
Method in brief: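 Activation activity, the read-weighted mean of bin median fluorescence averaged across barcodes, was linearly mapped onto the scale of the initial dataset. It was measured for barcoded protein tiles fused to an estradiol-inducible synthetic transcription factor at URA3 in GFP-reporter yeast diploids. Cultures diluted 1:5 into SC with 1 uM beta-estradiol were held 4 hours at 30 °C, sorted into 8 bins by GFP:mCherry ratio, and barcode-sequenced, and tiles under 50 reads were discarded.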

Sequence | transcriptional activation domain activity
YHTRNRLLLLCAQAHELAVLGVRELARCLRYLPKVHYMPVHWSTIFTWAEFCA | 75600
MGVICIFICFAVGLSTIITNLLSWLLLFSIICLICAPIILFVEVPFLLRICPT | 61400
GFMLIFWNLAGVPLSYCHCSIFVANHLDTITSWGGDFRLPLLVLLFTSYLFMY | 42000
AAADAEVDELEDGTADADGAKPKKRKRGGDADGKPKSARKDAPAAAKKKGGAA | 36500
SYINTHNSNDNNNLMGSQARSNSQTPTASTIYEEAESQSSYLDDMFRTSQGGR | 43100
ARVIRCNRSAELHVVNRLREVCEDQELRADSTALTSLVRTCRSDLRACINALQ | 59300
LRSVGRGGNSLVVIGFFVMNGVGIVLERVWKRICGRSVRGIWGWIWTFSWLAL | 79900
MRCPFHLLHTTSGLVYTFYLLFWVLVDTLMFYFFFPSCMSLGSVGHLLFISCC | 67600
TLAGMIRENDEEQKSRGITRIKELEIKCLIEGAYGINRPMHLFETAVVIAGGV | 54500
SCLMWVVSCALFMCGQLVFFDLNYYWNLTLVSYFLELSIVLVLMFMKLWLSKR | 30400
VSMARGKKTFDRETIVIALERLLAVAPLAFQKVKILLALASCHFDFLSSASAY | 68200
MLLSAHFIDFFLLLLLLLLLHLIVPLIFILHHSLLFFLVLPIVCNYFFSWLPV | 78400
VLKALWSFAYTFGLFIFCNGSIYYFVARIFGSYYRVLDSPIVGFRWSNIHLFL | 57100
SGKLVFGPVSVFNGNVSLRIKKPLKGMTLTVTFNGVAEVDKYLFTFLNISHEV | 57800
MRGCLVAGITLLTRFVVASCGRRNVGRMRHRPRGQPLPSSLMLLVVICREFRK | 66500
AAPTETAPPAAEPAPVAAPIETKAAEPAAPVTEAPATTATEEVKPAVEPAKTE | 49400
KDDEKKDRHRSRRDRGDRDKEDERRRRKRRSRSRSNHRHGHERRRDRSRSREG | 17100
GASGGTKLAKKAPAAAAPKKVAAPKKEAAPKKEIKEKKPAAAPKKAAVPKKEA | 38800
RAITPMRVWMEVHDRAAFKLVWSEVFRLVSVLTDCPLRFKRLHYGGTMLGINT | 45000
MPPAPKSPQPRRPGAPKSKGAVRAKSGCYTCRIRRKKCDEQMNAEGSCSTCVR | 42800
NAVNKSRGMVKGSGRKLHQQKGTGRARMRDAQNPIRRGGGRAFAKTTARNWLV | 29500

Sequence | transcriptional activation domain activity
MGGAGDKVLICNCSSTDSFLRMFLLILVFFLIILLVCMDWSLRFLMMFVFLLV | 19800
FIVLYLSHRQLIIVNPCYLLGHHACSLLCLLILHNFHIWLSYVGTVLFCFCFS | 78400
TLLFQIVIAFIDILRHLSLYKIEIENDTICALVGASMNFSDHIYVAFNTLLAI | 49500
NSSSNNNVSTVPSSMMHSSTLNGTSGLGGDNDDNMLALSLATLANSATASPRL | 27900
HYNALNGRWKVFRNEKDEDSIRVVAGMVWWGKILVVTCVEKGVFQIRLFSSIN | 7550
YISHSRCLLVFPVLPFFVHYLLFVFSFALLQIIALEILSLVLFVLDLLSLFPH | 32800
DEPTTDEKKVEETAVAVANLSVEGKKDEKKEEATLSDDKKTEAATEAVAAAPV | 10100
ILLTCLLQICCRFVQEKQTRCLQILLHYIGSQASMHAGARPLELLCRSLLEAM | 40900
GTAHHHDPNDPKRPRACEACRGLKVRCEPDPTNPNPDGPCKRCAKAGRACLVT | < 6570
AAPAASKAAPAAASPEKKEKAKPGKKEREAAKAAAAAAPPKASASSSSAPEQA | 18300
HAARALSLPSISPQFFVLLHKLSFPLLPFWLPMYFLLCITLPSSWLVLLYLFL | 37800
VHEVRAKAVKLVTASDSDDESGAGAGKAKKSEWKTQGVGPLRLLKNKSTGAVR | 32400
RDAKERGEGKRKREERDSRRSERGEEDGKRRRESSADRDPDRKRSRRRRKDRD | 40900
TSIFGSNNNNTGSGMFGGNNNTNTGTPFGGGGGFGTNTNTNTAFGSKPFGSST | 17500
LKGDHLDAVMVPKCESAADLHFVTDVIRHLRPDRHPSSTASASSSGSRREPVR | 33200
ELLYKSYLCHLFSFFFPFPFYNIFNIIVHLFFFFLSFLSFFYYFNIYSCLYIY | 69800
LIFSLKVLVMLICIIMIEFYITYAVAVGYIYAVAILEPFRPQLAVAFTWIRPV | 66600
LCKAIQFCVFLGFALAGYNFEPWHQLIVYETLCFVLFLSRVLLTIQYAVVLVY | 61400
VCKLLRLETLRWIFREFHWKLHLRKRFLPYHLLTYMRTLRITANNSIKHLSFN | 41000
ITPYPVLLSGEDTSSKISRMRKVLRDRARTDNWIYLIPTLSTLAWLFNYRCRT | 66100
GVDDADHEEEEEEEEEEEQEGARYGALMGGLGVAQGAMRILAPAVAGGVYAVS | 67300

Sequence | transcriptional activation domain activity
SDSDEEDEDERAEDAEVDTSASVNRLRDAQAEVETGDVTRRIAIVNLDWDHIK | 29200
NIQSFDAIYFAALQVIIVSSANGWSPLMYQMMDSEFFVSCVFFIICIVVLNFW | 61500
ESAAASSNQSSAPASAPTPNAPPSTANAEGGENKPKPSRRRGRGGGGGGQKQN | 27400
KWIIPTPFASHAFNPCDGFLQSLPYHIYVYMIPMHKYLYLLMFVLVNFWTVMI | 49700
PHHKWVVPTPFSSHAFHPVDGWLQSIPYHIFILVFPLHRVLYLVLFVLINFWT | 59200
TRDDEEGGEEEEEEEEEEEEDEEDEDPESLPHIHKALEIHYQIHLSPTYSVPV | 52700
VFSQTEAIRVLGLIGRIATGRHLDIILSDILPPSTVAELYALGKFMNLPWWYR | 58400
ENTRHRIFSIFRKSDLGLYALRGSQTLMNYSRVLGLLIRKWVITALRVCMWLG | 53000
RANMSTQKLAASASRQINAVVVSAGLMEKTVKVRIGQQKWNAHIRKHFNRTSH | 44400
DLMMVVFGVLLSSLFFVFVFVWYCYLLLSCFLSFFLSLVVSWCWLGLHIHVYS | 43500
GVERNHLSVFRPVSFSFSSWFMLLLFFCFRGVELVILFPDCSWFLCIPLFYSF | 67700
TDSNATQKQLPVLTPSDLLSPFSVPSVSQVLFTNELRSMMLADNNIDSGAFPT | 79900
VRVLNQLKLLLYCTLLSPVYAFKPYRNLYYTFLRKNLLGVVGGYNCAGHNLAI | 55500
IAPCGSWTPYTCLILGSIISLFIDFDVFAPFSYRGFITSYFGLAWFWFMFLFW | 56200
MFAHFFFLRACCCPLPFFFCGYVFLIFSSPFSCFCFLCFWFCCFFFSVCFLLF | 58700
MVKLLLTRLPYFCVLVYCVFRYPIATFCLDIFLFFKQLCQNAHAIQWPQISWL | 77200
PRNSWIKWAFLFARYFPLLAGLCGRVIDSIVLYRQPIPIPLNALRIWYICQVL | 52500
FYFICLFFILYFVFIFMFVFHMFVFYFLCFFLCLIYFLLVYFDICFLSLYLFF | 42600
AYHSAKHVIVPNDGKLLAMTDPLISDLDEDGQKGLLIISRGTALLLLGVYIAY | 47300
IMYSVIVSLLLFLFLLVLLRRYLVSLYYFTSLFLSPRLCARIAIVFRICLLYI | 50300
RRRRAKSRDPERVRERSERRASRSPEKKDKSARSKSRLGRLAAGAAAAGAAAI | 42800

Sequence | transcriptional activation domain activity
MEVCSVWISSLWFFVFSAFSVLGLWSLVFGIWSFRESGWYMGPGFFFFFFLIL | 63100
ADEEGEGEAEEKPKRKRATKKKVEEEDDEEEEEEEKPKPKARAKAGSSKKAAT | 21100
MLFSLYLFFYFLFFVCDGLPYFWFYKHTRFSVNYVSSSPPFCWSLFFLFFYFF | 62000
MYFCLDKLRRLACFLSLFFVSFFLFLCLTLFFALLFIISLSLLMYRCVLISLC | 14000
SMNYISITAPIYDRGPDSTCLLGSTVCSYFDYDTWTLSLTLWVLIQLTWSMFL | 60800
MRRLGWVGVSGLVSFLFTSFFFLVSFFLLLLLLLLTHFSFLFFFFAFTFILMM | 45500
TGQGGLEEVKGKLDETKASFAYVRITYANDKESQREKFILIIFIGAEVKVMRK | 37500
FPTVLVYYLLFAIGRLCTIMLYAALETCLAFMNHFPLFAMMLRLKDPARLPGG | 61800
NLYGNDEEVLFYEDNYNPKMQWSLQDNSAAINNEDARAIFNNEFDSDDDDISD | 86600
MCGGSFSLHRLHFFFIYVCFFCFVLSCLFTLAYWVVLYYARLVMGFWWFWWFG | 58300
GFHHLLPVFQMLLFKLDHRLYMNIGDVAKFLNITTINVLLLQLTDLHSLINIP | 54900
AGRWQYATLFFSGVSGGATLALSLCVITHPSLLTRIVVICIFVTLISAFTILP | 27900
MREDITQIDLITFYLCIFLSITVFVELIILCWIRILSIFNVCLFALLLCQLVY | 33700
KKSDEKDDTKPKKKKAKHDDADKESKKKLKKASKEKKSKSTKSKKDTAENAIA | 42900
EYVSLCRTFATREMLKVAIFANIFSKMTRTLACLFVTRISSHVNRLRALLQPI | 61700
MKQHEYFHLGINLFCPPFFILKSYKEAILSLLLAFKILEIWTFFFIFPLFFLF | 47800
LLVFICAAPYAAYREGNNLIVSSYFCSSFLVFNFYMRLDCGLSWMKHTLLFIV | 44700
MCCLLLFSPSFLCFFFAFFFYFTFYMTHLSDFSFLQRAIGLTYVFIWLIYRAH | 38100
GSSTTPARCTSARTMRSASYGASKYKGREGKVTQVYRKKWVIHVQRDKVGQVR | 83200
MRHEHGGMAFNVFFLWTFMYLCLWLRVNVLCFMSISLFLMSLFFLFFLVWLSG | 51200
